Assay results reported in US20220135687A1 (NANJING LEGEND BIOTECH, published 2022).
Like-named read-outs stand apart in the source and are kept apart here.

B1: 53C1_chimeric (antibody, human IgG1, kappa, N297A, V domains shown)
VH: QVQLQQSGNELARPGASVRLSCKASGYIFTGYGITWVRQRPGQGLEWIGEIFPRRVNTYYSEKFKGRATLTADISSSTAYMELRSLTSEDSAVYFCARDYDPYFALDYWGQGTSVTVSS
VL: DIVMTQSHKFMSTSVGDRVSITCKASQDVSTAVDWYQQKPGQSPKLLIYSASYRYTGVPDRFTGSGSGTAFTFTISGEQAEDLAVYYCQQHYSIPFTFGGGTKLEIKR
notes: Human IgG1 with effector-less Fc mutations, human kappa; also called chimeric 53C1F3D4
B2: 27D3D3G2 (antibody, V domains shown)
VH: QVLLQQSGPELVKPGASVRISCKASGYTFTSYYMHWVKQRPGQGLEWIGWIYPGNVNTKYNEKFKGKATLTADKSSSTAYMQLSSLTSEDSAVYFCASYGNYGGWYFDVWGAGTTVTVSS
VL: DIQMTQTTSSLSASLGDRVTISCRASQDIGNYLNWYQQKPDGTVKLLIYYTSRLHSGVPSRFSGSGSGTDYSLTISNLEQEDIATYFCQQGDTFPWTFGGGTKLEIK
notes: Mouse mAb from hybridoma culture
B3: 29A8_VH1-VL1.M1 (antibody, human IgG1, kappa, N297A)
heavy: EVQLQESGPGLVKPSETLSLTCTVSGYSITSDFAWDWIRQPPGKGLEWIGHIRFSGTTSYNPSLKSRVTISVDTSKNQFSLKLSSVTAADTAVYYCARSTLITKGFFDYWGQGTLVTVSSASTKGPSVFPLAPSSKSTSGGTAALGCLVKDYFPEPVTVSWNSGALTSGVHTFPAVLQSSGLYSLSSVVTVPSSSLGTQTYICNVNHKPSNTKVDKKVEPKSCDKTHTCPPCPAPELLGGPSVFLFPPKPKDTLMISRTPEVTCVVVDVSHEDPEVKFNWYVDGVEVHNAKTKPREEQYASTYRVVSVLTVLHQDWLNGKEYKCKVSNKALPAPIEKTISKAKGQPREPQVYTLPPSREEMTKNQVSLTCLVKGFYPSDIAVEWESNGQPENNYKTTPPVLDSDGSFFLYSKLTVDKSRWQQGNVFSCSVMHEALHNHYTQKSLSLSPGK
light: DIQMTQSPSSLSASVGDRVTITCRASQDVSPAVAWYQQKPGKAPKLLIYWASTRHTGVPSRFSGSGSGTDFTLTISSLQPEDFATYYCQQHYSTPWTFGQGTKVEIKRTVAAPSVFIFPPSDEQLKSGTASVVCLLNNFYPREAKVQWKVDNALQSGNSQESVTEQDSKDSTYSLSSTLTLSKADYEKHKVYACEVTHQGLSSPVTKSFNRGEC
notes: Humanized, hIgG1 effector-less Fc, kappa; see recheck on K24R in the .M1 light chain
B4: 29A8_VH5-VL1.M1 (antibody, human IgG1, kappa, N297A, V domains shown)
VH: EVQLQESGPGLVKPSETLSLTCTVSGYSITSDFAWDWIRQPPGKGLEWIGHIRFSGTTSYNPSLKSRVTISRDTSKNQFSLKLSSVTAADTAVYYCARSTLITKGFFDYWGQGTLVTVSS
VL: DIQMTQSPSSLSASVGDRVTITCRASQDVSPAVAWYQQKPGKAPKLLIYWASTRHTGVPSRFSGSGSGTDFTLTISSLQPEDFATYYCQQHYSTPWTFGQGTKVEIKR
notes: as for B3
B5: 29A8_VH4-VL1.M1 (antibody, human IgG1, kappa, N297A)
heavy: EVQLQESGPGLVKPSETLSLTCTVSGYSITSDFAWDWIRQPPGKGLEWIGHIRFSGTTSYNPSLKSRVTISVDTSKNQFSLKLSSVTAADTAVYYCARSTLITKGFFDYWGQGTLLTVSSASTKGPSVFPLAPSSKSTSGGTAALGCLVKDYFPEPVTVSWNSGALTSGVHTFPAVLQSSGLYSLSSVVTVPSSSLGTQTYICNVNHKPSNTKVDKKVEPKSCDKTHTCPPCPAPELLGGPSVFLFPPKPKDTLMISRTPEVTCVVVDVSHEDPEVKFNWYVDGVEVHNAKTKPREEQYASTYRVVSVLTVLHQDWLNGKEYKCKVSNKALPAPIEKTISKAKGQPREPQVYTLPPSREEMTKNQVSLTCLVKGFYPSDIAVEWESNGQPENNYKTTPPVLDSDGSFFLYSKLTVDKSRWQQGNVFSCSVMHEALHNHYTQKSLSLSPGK
light: DIQMTQSPSSLSASVGDRVTITCRASQDVSPAVAWYQQKPGKAPKLLIYWASTRHTGVPSRFSGSGSGTDFTLTISSLQPEDFATYYCQQHYSTPWTFGQGTKVEIKRTVAAPSVFIFPPSDEQLKSGTASVVCLLNNFYPREAKVQWKVDNALQSGNSQESVTEQDSKDSTYSLSSTLTLSKADYEKHKVYACEVTHQGLSSPVTKSFNRGEC
notes: as for B3
B6: 29A8_chimeric (antibody, human IgG1, kappa, N297A, V domains shown)
VH: DVQLQGSGPGLVKPSQSLSLTCTVTGYSITSDFAWDWIRQFPGNKLEWMGHIRFSGTTSYNPSLKSRISITRDTSKNQFFLQLNSVTSEDTATYYCARSTLITKGFFDYWGQGTTLTVSS
VL: DIVMTQSHKFMSTSVGGRVSITCKASQDVSPAVAWYQQKPGQSPKLLIYWASTRHTGVPDRFTGSGSGTDFTLTISSVQTEDLALYYCQQHYSTPWTFGGGTKLEIKR
notes: Human IgG1 with effector-less Fc mutations, human kappa; also called chimeric 29A8H8C7
B7: 53C1_VH2-VL1.M1 (antibody, human IgG1, kappa, N297A, V domains shown)
VH: EVQLVQSGAEVKKPGASVKVSCKASGYIFTGYGITWVRQAPGQGLEWIGEIFPRRVNTYYSEKFKGRATLTTDTSTSTAYMELRSLRSDDTAVYFCARDYDPYFALDYWGQGTTVTVSS
VL: DIQMTQSPSSLSASVGDRVTITCRASQDVSTAVDWYQQKPGKAPKLLIYSASYRYTGVPDRFSGSGSGTDFTFTISSLQPEDIATYYCQQHYSIPFTFGQGTKLEIKR
notes: as for B3
B8: 53C1_VH3.M3-VL1.M1 (antibody, human IgG1, kappa, N297A, V domains shown)
VH: EVQLVQSGAEVKKPGASVKLSCKASGYIFTGYGITWVRQAPGQGLEWIGEIFPRRVQTYYSEKFKGRATLTADTSTSTAYMELRSLRSDDTAVYFCARDYDPYFALDYWGQGTTVTVSS
VL: DIQMTQSPSSLSASVGDRVTITCRASQDVSTAVDWYQQKPGKAPKLLIYSASYRYTGVPDRFSGSGSGTDFTFTISSLQPEDIATYYCQQHYSIPFTFGQGTKLEIKR
notes: Humanized, VH N57Q in the entry; hIgG1 effector-less Fc, kappa; see recheck on K24R in the .M1 light chain
B9: 53C1_VH3-VL1.M1 (antibody, human IgG1, kappa, N297A, V domains shown)
VH: EVQLVQSGAEVKKPGASVKLSCKASGYIFTGYGITWVRQAPGQGLEWIGEIFPRRVNTYYSEKFKGRATLTADTSTSTAYMELRSLRSDDTAVYFCARDYDPYFALDYWGQGTTVTVSS
VL: DIQMTQSPSSLSASVGDRVTITCRASQDVSTAVDWYQQKPGKAPKLLIYSASYRYTGVPDRFSGSGSGTDFTFTISSLQPEDIATYYCQQHYSIPFTFGQGTKLEIKR
notes: as for B3

Assays:
[1] = biological target: T1, human PD-L1 expressed on CHO-K1 cells (Genscript, Cat #M00543) (human, UniProt Q9NZQ7 19-290); experiment: FACS, CHO-K1/human PD-L1 cells
T1 construct: also called PD-L1 cell line
Protocol: (§1) PD-L1 stable cell line binding activity assessment of 12 mouse mAbs was carried out using FACS. CHO-K1 cells expressing human PD-L1 (Genscript, Cat #M00543) were dissociated from adherent culture flasks and mixed with varying concentrations of antibodies. The antibody and cells were incubated for 30 minutes at room temperature, washed three times with FACS buffer (PBS containing 1% BSA). PE-labeled goat anti-mouse IgG (minimal x-reactivity) secondary antibody (BioLegend, Cat #405307) was added and incubated at room temperature for 15 minutes. Cells were washed again with FACS buffer and analyzed by FACSCalibur (BD Bioscience, San Jose, Calif.) and Flowjo software. Data were analyzed with Prism 6 (GraphPad Software, San Diego, Calif.) using non-linear regression, and EC₅₀ values were calculated (FIGS. 2A-2L and Table 3).
Human and cynomolgus PD-L1 stable cell line binding activity assessment of chimeric and humanized mAbs was carried out using FACS as described above (FIGS. 9A-9L and FIGS. 10A-10L and Tables 13 and 14).

[2] = biological target: T2, cynomolgus PD-L1 overexpressing stable cell line (cynomolgus, UniProt G7PSE7 19-290); experiment: FACS, cynomolgus PD-L1 cell line
T2 construct: also called cynomolgus PD-L1 overexpressing cell line

[3] = biological target: T1, human PD-L1 expressed on CHO-K1 cells …; experiment: cell-based or functional assay
[4] = biological target: T1, human PD-L1 expressed on CHO-K1 cells …; experiment: FACS competition vs biotin-PD-1-Fc on CHO-K1/human PD-L1 cells
Protocol: A series of diluted mouse mAbs (concentration starting from 900 nM, 3 fold dilution, 50 μl per well) were added afterwards. The mixture was incubated at 4° C. for 30 minutes, washed twice with wash buffer, followed by the addition of PEcy5/streptavidin (1 μg/ml, 150 μl/well). The plates were again incubated at 4° C. for 30 minutes before the cells in each well were analyzed by FACSCalibur (BD Bioscience, San Jose, Calif.) and Flowjo software.

[5] = biological target: T3, His-tagged PD-L1 ECD protein (ACROBiosystems) (human, UniProt Q9NZQ7 19-238); experiment: SPR, supernatant IgG captured, PD-L1-His analyte
T3 construct: Bought protein; also called PD-L1-His; PD-L1/His; not shown: His tag

[6] = biological target: T3, His-tagged PD-L1 ECD protein …; experiment: SPR, supernatant IgG captured, PD-L1-His analyte; remark: listed apart in the source
[7] = biological target: T3, His-tagged PD-L1 ECD protein …; experiment: SPR, IgG captured by anti-human Fc, PD-L1-His analyte
Protocol: Briefly, capturing antibody (anti-mouse Fc antibody for the affinity measurement of mouse mAbs, or anti-human Fc antibody for the affinity measurement of chimeric and humanized mAbs, GE healthcare) was immobilized on a Biacore™ CM5 chip to approximately 7,000 RU using EDC-activated amine coupling chemistry. Antibody of interest (5 μg/ml) was captured for 60 seconds onto the sensorchip surface. His-tagged PD-L1 ECD protein (ACROBiosystems) was flowed over the sensorchip surface at a series concentrations. Flow rate was 30 μl/min in all experiments. Association and dissociation phases were 5 and 15 min, respectively. The chip was regenerated using Glycine/HCl pH 1.5. Captured antibody and antigen were removed between each cycle using 50 mM HCl in order to ensure a fresh binding surface for each concentration of antigen. The resulting sensorgrams were fit globally using a 1:1 binding model in order to calculate on- and off-rates (ka and kd, respectively), as well as affinities (KD).

[8] = biological target: cynomolgus PD-L1 Fc-fusion protein (cynomolgus, UniProt G7PSE7 19-238); experiment: SPR, cyno PD-L1-Fc immobilised, antibody analyte
[9] = biological target: T1, human PD-L1 expressed on CHO-K1 cells …; experiment: cell-based or functional assay; remark: listed apart in the source
[10] = biological target: T1, human PD-L1 expressed on CHO-K1 cells …; experiment: FACS, CHO-K1/human PD-L1 cells; remark: listed apart in the source
Protocol: as §1

[11] = biological target: T3, His-tagged PD-L1 ECD protein …; experiment: SPR, supernatant IgG captured, PD-L1-His analyte; remark: listed apart in the source

T2 sequence (G7PSE7 entry or part of it limits assumed): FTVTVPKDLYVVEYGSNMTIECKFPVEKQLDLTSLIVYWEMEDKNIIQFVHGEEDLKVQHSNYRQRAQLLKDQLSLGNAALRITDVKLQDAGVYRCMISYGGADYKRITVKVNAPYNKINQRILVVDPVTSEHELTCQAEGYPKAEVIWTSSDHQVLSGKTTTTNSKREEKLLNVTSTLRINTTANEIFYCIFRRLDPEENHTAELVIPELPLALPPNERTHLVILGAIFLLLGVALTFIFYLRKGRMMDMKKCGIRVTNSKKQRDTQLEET
T3 sequence (Q9NZQ7 19-238): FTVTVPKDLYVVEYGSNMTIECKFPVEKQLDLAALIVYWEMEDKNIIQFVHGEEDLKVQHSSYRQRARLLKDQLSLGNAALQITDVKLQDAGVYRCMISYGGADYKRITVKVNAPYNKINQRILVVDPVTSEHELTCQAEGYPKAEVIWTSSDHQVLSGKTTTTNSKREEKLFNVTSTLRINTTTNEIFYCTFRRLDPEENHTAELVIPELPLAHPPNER
T1 sequence (Q9NZQ7 19-290, one chain of several): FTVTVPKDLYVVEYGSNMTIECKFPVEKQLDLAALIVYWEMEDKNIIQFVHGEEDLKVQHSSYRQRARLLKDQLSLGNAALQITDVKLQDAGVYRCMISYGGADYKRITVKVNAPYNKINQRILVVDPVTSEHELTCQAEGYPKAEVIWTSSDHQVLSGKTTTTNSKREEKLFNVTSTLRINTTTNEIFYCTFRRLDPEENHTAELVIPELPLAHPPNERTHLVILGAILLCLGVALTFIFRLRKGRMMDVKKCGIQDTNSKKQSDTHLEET
Chain of cynomolgus PD-L1 Fc-fusion protein (G7PSE7 entry or part of it limits assumed): as the sequence (Q9NZQ7 19-238) above, with A33T, A34S, S62N, R68Q, Q82R, F173L, T185A, T192I, H215L counted along it

Binder | EC50 [1] [nM] | Top (best-fit value) [1] | EC50 [2] [nM] | Top (best-fit value) [2] | EC50, PD-L1 cell-based luciferase reporter assay [3] [nM] | IC50 [4] [nM] | Kd [5] [nM] | koff [5] [s⁻¹] | kon [5] [M⁻¹ s⁻¹] | Kd [7] [nM] | koff [7] [s⁻¹] | kon [7] [M⁻¹ s⁻¹] | Kd [8] [nM] | koff [8] [s⁻¹] | kon [8] [M⁻¹ s⁻¹] | Kd [11] [nM] | koff [11] [s⁻¹] | kon [11] [M⁻¹ s⁻¹] | further results
B1 | 1.79 | 6230 | 2.88 | 8490 | 1.98 | 0.59 | 0.72 | 0.00018 | 250000 | 0.78 | 0.00019 | 240000 | 1.1 | 9.5e-05 | 87000 | – | – | – | Kd [6]: 0.75 nM; koff [6]: 0.00019 s⁻¹; kon [6]: 260000 M⁻¹ s⁻¹
B2 | – | – | – | – | – | 1.28 | – | – | – | – | – | – | – | – | – | – | – | – | EC50, PD-L1 cell-based luciferase reporter assay [9]: 3.62 nM; EC50 [10]: 4.19 nM; Top (best-fit value) [10]: 1770
B3 | 1.75 | 6400 | 3.53 | 7470 | 2.01 | 0.463 | – | – | – | 1.4 | 0.0008 | 590000 | 4 | 0.00043 | 110000 | 1.5 | 0.00071 | 470000 | –
B4 | 1.31 | 5100 | 3.07 | 7950 | 1.81 | 0.545 | – | – | – | 0.74 | 0.00046 | 620000 | 0.98 | 0.0002 | 200000 | 0.76 | 0.00042 | 550000 | –
B5 | 1.05 | 5180 | 1.49 | 7820 | 1.24 | 0.385 | – | – | – | 1.1 | 0.00071 | 630000 | 3.3 | 0.00044 | 130000 | 1.1 | 0.00063 | 560000 | –
B6 | 1.08 | 6410 | 2.77 | 8670 | 1.34 | 0.3 | – | – | – | 0.3 | 0.00019 | 640000 | 0.48 | 7.3e-05 | 150000 | 0.25 | 0.00015 | 580000 | Kd [6]: 0.32 nM; koff [6]: 0.00017 s⁻¹; kon [6]: 530000 M⁻¹ s⁻¹
B7 | – | – | – | – | – | – | 1 | 0.00025 | 240000 | – | – | – | – | – | – | – | – | – | –
B8 | – | – | – | – | – | – | 0.21 | 7.3e-05 | 350000 | – | – | – | – | – | – | – | – | – | –
B9 | 2 | 6410 | 4.66 | 8310 | 2.26 | 0.482 | 0.49 | 0.00015 | 300000 | 0.55 | 0.00016 | 290000 | 0.71 | 6.8e-05 | 95000 | – | – | – | –
